Reference: patent US20050249738A1

Biological target: CD22 on human B cells (human) (UniProt P20273)
Test: cell-based or functional assay

UniProt P20273, sequence (P20273 20-847): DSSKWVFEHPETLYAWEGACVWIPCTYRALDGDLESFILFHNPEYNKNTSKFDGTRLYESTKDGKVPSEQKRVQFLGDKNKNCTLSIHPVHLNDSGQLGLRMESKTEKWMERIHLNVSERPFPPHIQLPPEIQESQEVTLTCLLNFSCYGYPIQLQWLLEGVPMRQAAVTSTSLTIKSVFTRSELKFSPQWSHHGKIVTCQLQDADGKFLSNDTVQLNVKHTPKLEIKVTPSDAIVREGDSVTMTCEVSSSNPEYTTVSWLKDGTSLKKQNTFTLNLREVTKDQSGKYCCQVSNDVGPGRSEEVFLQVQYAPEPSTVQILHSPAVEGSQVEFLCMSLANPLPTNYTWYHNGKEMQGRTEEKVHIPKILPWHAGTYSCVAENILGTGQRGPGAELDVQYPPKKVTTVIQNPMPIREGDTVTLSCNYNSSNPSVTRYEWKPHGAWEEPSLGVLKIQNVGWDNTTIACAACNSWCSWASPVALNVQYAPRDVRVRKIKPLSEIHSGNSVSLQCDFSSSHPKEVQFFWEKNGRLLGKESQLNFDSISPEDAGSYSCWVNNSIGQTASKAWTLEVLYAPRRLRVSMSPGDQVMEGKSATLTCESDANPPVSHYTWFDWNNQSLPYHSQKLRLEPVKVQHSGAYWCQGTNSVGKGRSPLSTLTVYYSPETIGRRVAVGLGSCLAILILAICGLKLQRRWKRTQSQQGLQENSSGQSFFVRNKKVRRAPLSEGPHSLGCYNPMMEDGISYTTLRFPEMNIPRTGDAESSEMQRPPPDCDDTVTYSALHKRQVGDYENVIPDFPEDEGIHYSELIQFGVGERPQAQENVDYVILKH

LL2-ONCONASE® immunotoxin
IC50 of protein synthesis inhibition, CA 46 cells, 24 h: 0.8 nM | IC50 of protein synthesis inhibition, Daudi cells, 24 h: 0.1 nM | IC50 of protein synthesis inhibition, Raji cells, 24 h: 0.8 nM
